Assay results: patent US20250011363A1, “OPTIMIZED SHORTENED PEPTIDE THAT BINDS TO ACETYLCHOLINE RECEPTOR, AND USE THEREOF” (SKINMED CO., LTD., priority 2021, published 2025)

Target: acetylcholine receptor (Homo sapiens, UniProt P02708)
Assay: SPR binding affinity (RU) of optimized 5mer/6mer/7mer peptides, Examples 6-7
Conditions: 6mer-1 Top sequence; SPR; peptides tested at 10 μM
In short: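 Single-concentration screen: 10 μM peptide, SPR detection, binding expressed as RU.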

Sequence of acetylcholine receptor (P02708 21-457): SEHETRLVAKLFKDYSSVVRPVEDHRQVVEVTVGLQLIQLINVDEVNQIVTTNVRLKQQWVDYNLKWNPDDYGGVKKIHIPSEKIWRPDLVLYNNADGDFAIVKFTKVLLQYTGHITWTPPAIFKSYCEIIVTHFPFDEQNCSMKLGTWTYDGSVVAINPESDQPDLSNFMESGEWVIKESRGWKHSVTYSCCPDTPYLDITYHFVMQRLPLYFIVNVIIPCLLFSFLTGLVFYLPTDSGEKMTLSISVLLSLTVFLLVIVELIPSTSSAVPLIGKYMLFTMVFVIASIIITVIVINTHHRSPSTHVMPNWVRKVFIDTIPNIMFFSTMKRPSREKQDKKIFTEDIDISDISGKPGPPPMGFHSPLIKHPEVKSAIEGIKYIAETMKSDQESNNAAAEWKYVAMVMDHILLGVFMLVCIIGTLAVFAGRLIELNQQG

Substance	Binding affinity [Ru]
6mer-1-396 (KRQIQK)	148
6mer-1-377 (KRWITR)	148
6mer-1-272 (KKQVSR)	139
6mer-1-257 (RKWVTR)	124
6mer-1-327 (KRGITR)	139
6mer-1-261 (KRWVTR)	121

Same assay, conditions: 6mer-2 Top sequence; SPR; peptides tested at 10 μM

Substance	Binding affinity [Ru]
6mer-2-25 (KQVQKR)	148
6mer-2-115 (KWQYRK)	144
6mer-2-96 (KWRQRK)	154

Same assay, conditions: SPR, Resonance Units; 5mer Bottom sequence (bottom combinations); peptides tested at 10 μM

Substance	Binding affinity [Ru]
5mer-767 (RFHFK)	12
5mer-1013 (KCCVK)	19
5mer-778 (KKDHK)	24
5mer-991 (RPEFR)	24
5mer-764 (KTWPK)	19
5mer-974 (RHMMR)	26
5mer-928 (KHMVR)	27
5mer-981 (KNDKK)	33
5mer-1061 (KDSFR)	24

Same assay, conditions: SPR, Resonance Units; peptides tested at 10 μM; 6mer-1 Bottom sequence

Substance	Binding affinity [Ru]
6mer-1-1087 (KKPWKR)	27
6mer-1-1150 (KRKWWR)	34
6mer-1-1039 (KRADIK)	40
6mer-1-1034 (KKASDR)	24

Same assay, conditions: SPR, Resonance Units; peptides tested at 10 μM; 6mer-1 Bottom sequence (Table 11)

Substance	Binding affinity [Ru]
6mer-1-670 (KKDWNR)	11
6mer-1-739 (RKCCEK)	32
6mer-1-679 (KKAEER)	30
6mer-1-773 (KRTEIR)	29

Same assay, conditions: SPR, Resonance Units; peptides tested at 10 μM; 6mer-2 Bottom sequence

Substance	Binding affinity [Ru]
6mer-2-961 (KNTKKR)	21
6mer-2-889 (REWDKK)	12
6mer-2-827 (KYAEKK)	13
6mer-2-793 (RMHKKR)	29
6mer-2-846 (RFSFKR)	30
6mer-2-691 (RHKMRK)	15
6mer-2-621 (RHEPKR)	32

Same assay, conditions: SPR, Resonance Units; peptides tested at 10 μM; 6mer-2 Top sequence

Substance	Binding affinity [Ru]
6mer-2-585 (RSFRRK)	136
6mer-2-517 (KLRTKK)	153

Same assay, conditions: SPR, Resonance Units; peptides tested at 10 μM; 6mer-2 Top sequence (Table 12)

Substance	Binding affinity [Ru]
6mer-2-392 (RQILKR)	149
6mer-2-260 (RRFCKR)	142
6mer-2-390 (KWLRRR)	145
6mer-2-395 (KWRYRR)	148
6mer-2-292 (RQLCKR)	121

Same assay, conditions: SPR, peptides at 10 μM; 6mer-2 Bottom sequence

Substance	Binding affinity [Ru]
6mer-2-996 (RHDARK)	40
6mer-2-1131 (RTNAKR)	26
6mer-2-1067 (RDEIRK)	29
6mer-2-1152 (RNWAKK)	37

Same assay, conditions: SPR, peptides tested at 10 μM; 5mer Top sequence

Substance	Binding affinity [Ru]
5mer-397 (RRITK)	52
5mer-26 (RQQQR)	65
5mer-478 (RVQTK)	75
5mer-499 (RVLTK)	76
5mer-193 (RVIRK)	80
5mer-423 (RRQLK)	60
5mer-94 (RWFQR)	50
5mer-108 (KWQLK)	77
5mer-343 (KSFSR)	60
5mer-489 (KSYSR)	63
5mer-106 (KLLQR)	78

Same assay, conditions: SPR, peptides tested at 10 μM; 5mer Top sequence (top combinations)

Substance	Binding affinity [Ru]
5mer-255 (KQRTR)	82
5mer-579 (RSLYK)	53

Same assay, conditions: SPR, peptides tested at 10 μM; 6mer-1 Bottom sequence (Table 11)

Substance	Binding affinity [Ru]
6mer-1-849 (KKFNWK)	21
6mer-1-952 (KRHDKK)	28
6mer-1-872 (KRPCHR)	23

Same assay, conditions: SPR, peptides tested at 10 μM; 6mer-1 Top sequence (top combinations)

Substance	Binding affinity [Ru]
6mer-1-97 (KKVYLR)	139
6mer-1-85 (RKRQCK)	121
6mer-1-56 (RRGIQR)	137

Same assay, conditions: SPR; XRRQRR-6mer and RRQRRX-6mer

Substance	Binding affinity, relative value to the RRQRR sequence
3625 (RRQRRP) [compound 3625]	137

Same assay, conditions: SPR; peptides tested at 10 μM; 5mer Bottom sequence

Substance	Binding affinity [Ru]
5mer-1125 (RYPFK)	29
5mer-820 (RIMHK)	28
5mer-1152 (KENFK)	18
